Read-outs that look alike come from different tables or passages of the source.
Legend:
[1] = test system: A-549 lung epithelial cells; assay: Cell proliferation, [3H]thymidine incorporation, A-549; format: cell-based; settings: subconfluent, 24 h
Description: (§1) Several cell lines are tested for BMP-9 responsiveness in vitro. Cell proliferation, as indicated by [^3 H]thymidine incorporation, is determined in cell lines derived from kidney and lung. Cell proliferation is determined by measuring [^3 H]thymidine incorporation in subconfluent cells treated for 24 h with or without growth factors. NRK-52E (ATCC CRL 1571), WI-38 (ATCC CCL-75), CCD-11Lu (ATCC CCL-202), CCD-16Lu (ATCC CCL-204), and A-549 (ATCC CCL-185) cell lines are placed at 10^4 cells/well in 96 well plates and assayed for [^3 H]thymidine incorporation as described above. IMCD-3 cells (ATCC #CRL-2123) are cultured in a collagen matrix as described by Barros et al., PNAS USA 92:4412-4416 (1995), and treated with growth factors for 6 days to allow tubule formation.

[2] = test system: NRK-52E kidney epithelial cells; assay: Cell proliferation, [3H]thymidine incorporation, NRK-52E; format: cell-based; settings: subconfluent, 24 h
Description: as §1

lung plasma membranes = assay: [125I]rhBMP-9 binding to lung plasma membranes; parameters: species or system rat
Description: To determine potential target tissues for BMP-9, plasma membrane preparations from adult rat organs are screened for specific [^125 I]rhBMP-9 binding. Plasma membranes are prepared by the methods of Neville, J. Biophys Biochem Cytol 8:412-422 (1960) and Ray, Biochim Biophys Acta 196:1-9 (1970) with the following modifications: Fresh tissues from adult male Long-Evans rats are homogenized with 10 strokes of a teflon homogenizer. Plasma membranes are collected from discontinuous sucrose gradients at 37%/41% sucrose interface and the 41%/45% sucrose interface. Homogenization buffer and sucrose solutions are supplemented with 0.7 μg/ml leupeptin, 2 μg/ml aprotinin and 240 μg/ml pefabloc. Protein levels in plasma membrane preparations are determined by the bicinchoninic acid assay (Pierce, Rockford, Ill.) using immunoglobulin G as a standard.
BMP-9 binding is carried out by suspending plasma membranes at 30 μg/100μl in binding buffer (136.9 mM NaCl, 5.37 mM KCl, 1.26 mM CaCl2, 0.64 mM MgSO4, 0.34 mM Na2 HPO4, 0.44 mM KH2 PO4, 0.49 mM MgCl2, 25 mM HEPES and 0.5% BSA, pH 7.4) containing o.5 ng [^125 I]rhBMP-9. Binding is allowed to equilibrate by incubation for 16 h at 4° C. […]
To verify that this specific binding is of high affinity, a more complete displacement profile is determined with lung and kidney plasma membranes.

[3] = test system: BMP-9 receptors expressed on HepG2 cells; assay: 125I-BMP-9 binding to HepG2 cells
Description: BMP-9 responsiveness in parenchymal liver cells is tested by screening four liver cell lines for their ability to bind iodinated, CHO-derived BMP-9. […] Specific binding of BMP-9 to HepG2 cells is carried out by incubating HepG2 cells grown to confluence in Dulbecco's Modified Eagle's Medium (DME) containing 10% heat-inactivated fetal calf serum (FCS) on gelatinized 6 well plates with 2 ng/ml ^125 I-BMP-9 and increasing concentrations of unlabelled BMP-9 in binding buffer (136.9 mM NaCl, 5.37 mM KCl, 1.26 mM CaCl2, 0.64 mM MgSO4, 0.34 mM Na2 HPO4, 0.44 mM KH2 PO4, 0.49 mM MgCl2, 25 mM HEPES and 0.5% BSA, pH 7.4) for 20 hours at 4° C. to achieve binding equilibrium. This incubation follows a one hour preincubation at 37° C. in binding buffer alone. For crosslinking experiments, the cells were incubated with 500 μM disuccinimidyl suberate for 20 minutes at […] following binding. Cell extracts were analyzed on SDS-PAGE. […] To test the binding specificity of the receptors for BMP-9, HepG2 cells were incubated with ^125 I-BMP-9 and a 250-fold excess of different unlabeled ligands.

[4] = Ectopic bone formation in vivo (implant); parameters: species or system rat; settings: 25 μg/implant, after 10 days of implantation
Description: A modified version of the rat bone formation assay described in Sampath and Reddi, Proc. Natl. Acad. Sci. USA 80:6591-6595 (1983) is used to evaluate bone and/or cartilage activity of the BMP proteins. This modified assay is herein called the Rosen-modified Sampath-Reddi assay. The ethanol precipitation step of the Sampath-Reddi procedure is replaced by dialyzing (if the composition is a solution) or diafiltering (if the composition is a suspension) the fraction to be assayed against water. The solution or suspension is then redissolved in 0.1% TFA, and the resulting solution added to 20mg of rat matrix. A mock rat matrix sample not treated with the protein serves as a control. This material is frozen and lyophilized and the resulting powder enclosed in #5 gelatin capsules. The capsules are implanted subcutaneously in the abdominal thoracic area of 21-49 day old male Long Evans rats. The implants are removed after 7-14 days. […]
The other half of each implant is fixed and processed for histological analysis. […] glycolmethacrylate sections are stained with Von Kossa and acid fuschin to score the amount of induced bone and cartilage formation present in each implant. […] In a modified scoring method, three non-adjacent sections are evaluated from each implant and averaged. […]

B1: BMP-9: recombinant human bone morphogenetic protein-9, mature amino acids #1-#110 of SEQ ID NO:9, expressed in CHO cells (protein)
chain: TRECSRSCPRTAPQRQVRAVTRRTRMAHVAAGSTLARRKRSAGAGSHCQKTSLRVNFEDIGWDSWIIAPKEYEAYECKGGCFFPLADDVTPTKHAIVQTLVHLKFPTKVG
modifications: 125I-iodinated as tracer; unlabelled BMP-9 used as the displacing ligand
With B1 the “cell proliferation ([3H]thymidine incorporation)” value [1] was “inhibited proliferation”, the “cell proliferation ([3H]thymidine incorporation)” value [2] was “inhibited proliferation” and the “specific [125I]rhBMP-9 binding” value (lung plasma membranes; adult rat lung plasma membranes, displaceable by 100-fold excess of unlabeled rhBMP-9) was “evident”. The Kd (lung plasma membranes; rat lung plasma membranes) was 0.6 nM, the Kd ([3]; HepG2 cells, Scatchard analysis, 20 hours at 4° C., read-out: Kd of high affinity receptors) was 0.3 nM and the Kd ([3]; HepG2 cells, estimated, read-out: Kd of the high affinity binding sites) was ~0.27 nM. The “Kd (estimated binding affinity) expressed” value ([3]; HepG2 cells, printed as Kd =0.3 nM=8 ng/ml) was 8 ng/mL, the “specific binding of 125I-BMP-9” value ([3]; HepG2 liver cell line, iodinated CHO-derived BMP-9) was “highest degree of binding” and the ectopic bone formation [4] was “inducing cartilage and bone tissue”.

Source: patent US6034062A, “Bone morphogenetic protein (BMP)-9 compositions and their uses” (Genetics Institute, Inc., priority 1997, dated 2000)
